The assay concerns the target PRPF40A WW12 (tandem WW domains, residues 141-236) (human, UniProt O75400 141-236). Briefly: ITC. A general note: Isothermal titration calorimetry measures the heat released or taken up as one component is titrated into another.

For 2 molecules, Kd results are on record in article PMC11079029 (2024).

Chain of PRPF40A WW12 (tandem WW domains, residues 141-236) (O75400 141-236): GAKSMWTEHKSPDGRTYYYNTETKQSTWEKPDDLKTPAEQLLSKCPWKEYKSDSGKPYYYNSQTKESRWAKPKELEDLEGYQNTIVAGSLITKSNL

Usually Kd stands for the constant that tells how readily two partners part at equilibrium. A higher Kd goes with lower affinity. GAMSGSPPPPPPPPPPPPPPPPSGSN [GB1-tagged polyproline peptide P16] showed a Kd of 3.35 µM.
Under GAMSGSPPPPPPPPPPSGSN [GB1-polyproline peptide P10] stands 28.6 µM.
